Data set [1] relates to HH cells (IL-2 CD122/CD132 (β/γ) receptor complex). The data set is described as follows: pSTAT5 ELISA in HH cells. Particulars: for relative selectivity for HH cells vs iTreg cells among the tested molecules: Table C; for Selectivity HH/iTreg: higher value = greater selectivity for HH cells; for EC50: pSTAT5 level 50% of maximum, InstantOne ELISA, read-out: EC50 HH T cell. In kind it is cell-based. The protocol:
(§1) The ability of the IL-2 variants to activate HH cells and iTregs was measured by monitoring relative changes in phosphorylated STAT5 (pSTAT5) in response to treatment of the cells with the IL-2 variants. pSTAT5 is known to be a downstream consequence of IL-2 signaling. HH T cells (ATCC CRL-2105) are a line of T cells that lack the alpha chain of the IL-2 receptor complex, but that contain the beta and gamma chains of the IL-2 receptor complex. iTreg cells were prepared from Fresh Leuko Paks obtained from […] Technologies (CAT #70500.1, Donor #D001003551).
(§2) For IL-2 activation, the HH cells and iTreg cells were plated at 2*10e6 cells/well in 50 ul serum-free RPMI 1640 media (Gibco), and allowed to rest at 37° C. After resting, cells were treated the IL-2 molecules listed above, and cells were then pelleted by centrifugation.
(§3) Following treatment with the IL-2 molecules, cell induction status was evaluated by the InstantOne ELISA pSTAT5 detection kit (Invitrogen).
Background: ELISA stands for enzyme-linked immunosorbent assay.

The target of the next data set is T1, hIL2Rα (CD25) (Homo sapiens, UniProt P01589).
T1 construct: Purified soluble ligands were covalently coupled onto a CM5 sensor chip
T1 sequence (P01589 22-240 limits assumed): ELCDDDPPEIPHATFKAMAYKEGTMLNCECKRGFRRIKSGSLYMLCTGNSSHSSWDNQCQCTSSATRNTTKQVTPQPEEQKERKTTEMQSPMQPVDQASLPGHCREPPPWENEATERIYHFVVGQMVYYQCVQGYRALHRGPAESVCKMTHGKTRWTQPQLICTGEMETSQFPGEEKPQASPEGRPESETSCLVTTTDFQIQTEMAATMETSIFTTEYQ
Put plainly: Biacore 8K surface plasmon resonance, hIL2Rα (CD25). The class given is binding. Particulars: SPR, Table B. As for the experimental part: (§4) All experiments were performed on a Biacore 8K Surface Plasmon Resonance based biosensor (GE Healthcare). Purified soluble ligands were covalently coupled onto a CM5 sensor chip using an Amine Coupling Kit (GE Healthcare, Product #BR100050) following the manufacturer's recommendations. HBS-EP+ running buffer (10 mM HEPES pH 7.4, 0.15 M NaCl, 3 mM EDTA, 0.005% P-20), ranging in concentration was injected on all flow cells for 7 minutes at 20 μL/min. CD25 and CD122 was captured to surface densities of ˜20 and ˜500 RU, respectively. A non-derivatized flow cell was used as a reference surface. All flow cells were blocked with 100 mM ethylenediamine in 200 mM borate buffer pH 8.5 for 7 minutes at 10 μL/min.
Protein interaction experiments were performed using HBS-EP+(pH 7.4) at 25° C. on each spot. Following capture of antigens, analyte (1.23, 3.7, 11.1, 33.3, 100, 300, and 900 nM concentrations of IL-2 variants) was injected at a flow rate of 50 μL/min in all flow cells for 50 seconds. After each analyte injection, dissociation was monitored for 5 minutes, followed by regeneration of all flow cells with a 20 second injection of 10 mM glycine (pH 2.1). Buffer cycles were collected for each sample for double-referencing purposes (double-referencing as described in Myszka, D. G., Improving biosensor analysis. J. Mol. Recognit. 12, 279-284 (1999)). […]
A general note: Surface plasmon resonance follows binding to a sensor surface in real time, without labels.

The next data set has as its system NK cells. Put plainly: In vivo expansion of NK cells (spleen immunophenotyping). On the set-up: species or system mice. Particulars: 0.5, 1, or 2 mg/kg daily for 4 days SC; spleens day 3. The protocol:
(§5) Mice were randomized into groups to receive one of the molecules listed above or PBS control. The treatment groups were as follows: PBS; Fc-IL2; Fc-IL2v; […]; Immunophenotyping was conducted on day 3 after the first treatment (day 0) by collecting spleens from each group.

A further data set has as its system Treg cells. The data set is described as follows: In vivo expansion of Treg cells (spleen immunophenotyping). Set-up: species or system mice. Particulars: 0.5, 1, or 2 mg/kg daily for 4 days SC; spleens day 3. As for the experimental part:
as §5

In another data set the test system is B16F10 cells. Put plainly: Tolerability and tumor growth inhibition in B16F10-bearing mice (Example 21). In kind it is in vivo, mouse (C57/BL6). Particulars: for surviving mice: 1 mg/kg SC on days 5, 6, 7, 8, groups of 15, day 12 post first treatment; for tolerability in mice compared with Fc-IL2 and Fc-IL2v: 1 mg/kg SC on days 5-8; for tumor growth inhibition in comparison to PBS control: B16F10 SC, 1 mg/kg SC on days 5-8, surviving mice. From the text:
On day 0 of the experiment, female C57/BL6 mice were subcutaneously implanted in the upper thigh with approximately 500,000 B16F10 cells, which had been freshly thawed from a single, low-passage vial (of 1*10^7 cells) and cultured for the minimum time required to establish sufficient cells for implantation.
On day 5 of the experiment, mice were randomized into groups to receive one of the molecules listed above or control. […] Tumor volumes, body weight, and animal survival were tracked throughout the course of the experiment. Animals were sacrificed once tumors reached approximately 2000 mm^3 or 2 weeks post treatment.

For data set [2], the system named is iTreg cells (IL-2 CD25/CD122/CD132 (α/β/γ) receptor complex). The data set is described as follows: pSTAT5 ELISA in iTreg cells. The class given is cell-based. Particulars: pSTAT5 level 50% of maximum, InstantOne ELISA; read-out: EC50 iTreg cell. The protocol:
as §1, §2, §3

The next data set deals with T2, hILR2β (CD122) (Homo sapiens, UniProt P14784).
T2 sequence (P14784 27-240 limits assumed): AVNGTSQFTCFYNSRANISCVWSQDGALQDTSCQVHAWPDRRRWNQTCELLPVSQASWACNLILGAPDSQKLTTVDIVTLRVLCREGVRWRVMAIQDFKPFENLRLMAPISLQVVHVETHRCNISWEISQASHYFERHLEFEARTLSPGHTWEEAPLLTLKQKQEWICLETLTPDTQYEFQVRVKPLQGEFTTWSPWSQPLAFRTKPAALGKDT
Put plainly: Biacore 8K surface plasmon resonance, hILR2β (CD122). The class given is binding. Particulars: SPR; for Kd / hILR2β (CD122) kinetics ka / hILR2β (CD122) kinetics kd: HBS-EP+ pH 7.4, 25° C.; for binding affinity to human IL-2Rβ compared with the wild-type IL-2 Fc fusion: Table B. As for the experimental part: as §4
Protein interaction experiments were performed using HBS-EP+(pH 7.4) at 25° C. on each spot. Following capture of antigens, analyte (1.23, 3.7, 11.1, 33.3, 100, 300, and 900 nM concentrations of IL-2 variants) was injected at a flow rate of 50 μL/min in all flow cells for 50 seconds. After each analyte injection, dissociation was monitored for 5 minutes, followed by regeneration of all flow cells with a 20 second injection of 10 mM glycine (pH 2.1). Buffer cycles were collected for each sample for double-referencing purposes (double-referencing as described in Myszka, D. G., Improving biosensor analysis. J. Mol. Recognit. 12, 279-284 (1999)). For kinetic analysis, the double-referenced sensorgrams were fit globally to a simple 1:1 Langmuir with mass transport binding model using Biacore 8K Evaluation Software version 1.1.1.7442. For steady-state affinity analysis, the double-referenced equilibrium binding responses were fit with a 1:1 Langmuir steady-state model using Biacore 8K Evaluation Software version 1.1.1.7442.

For another data set, the system named is CD8 T cells. Put plainly: In vivo expansion of CD8 T cells (spleen immunophenotyping). On the set-up: species or system mice. Particulars: 0.5, 1, or 2 mg/kg daily for 4 days SC; spleens day 3. As for the experimental part:
as §5

B1: Fc-IL2-R38N:L40T-K43N:Y45T (protein)
chain: APTSSSTKKTQLQLEHLLLDLQMILNGINNYKNPKLTNMTTFNFTMPKKATELKHLQCLEEELKPLEEVLNLAQSKNFHLRPRDLISNINVIVLELKGSETTFMCEYADETATIVEFLNRWITFCQSIISTLT
With B1, in data set [1], the “relative selectivity for HH cells vs iTreg cells among the tested molecules” value was “greatest relative selectivity”, the “Selectivity HH/iTreg” value is reported as 6.47 × 10^−2 and the EC50 (usually the concentration needed to bring the measured effect to its halfway point) stood at 218 nM. Moreover, the “binding to IL-2Rα” value with hIL2Rα (CD25) is given as “do not have measurable binding to IL-2Rα”. Besides, the “expansion of NK cells in vivo” value in the data set with NK cells is “promoted the expansion”. Moreover, the “proliferation of Treg cells in vivo” value in the data set on Treg cells is on record as “minimal effects on the proliferation of Treg cells”. Besides, in the data set with B16F10 cells, the surviving mice is reported as 11/15; the “tolerability in mice compared with Fc-IL2 and Fc-IL2v” value is reported as “better tolerated”; the “tumor growth inhibition in comparison to PBS control” value is on record as “significant tumor growth inhibition”. In data set [2], the EC50 worked out at 14.1 nM. In addition, in the data set with hILR2β (CD122), the affinity, expressed as Kd, was 3540 nM; the “hILR2β (CD122) kinetics ka” value turned out to be 82600 M⁻¹ s⁻¹; the “hILR2β (CD122) kinetics kd” value stood at 0.292 s⁻¹; the “binding affinity to human IL-2Rβ compared with the wild-type IL-2 Fc fusion” value is reported as “retain similar binding affinity”. For the same molecule, the “expansion of CD8 T cells in vivo” value with CD8 T cells is on record as “promoted the expansion”.

B2: Fc-IL2-K43N:Y45T-L72N:Q74T (protein)
chain: APTSSSTKKTQLQLEHLLLDLQMILNGINNYKNPKLTRMLTFNFTMPKKATELKHLQCLEEELKPLEEVLNNATSKNFHLRPRDLISNINVIVLELKGSETTFMCEYADETATIVEFLNRWITFCQSIISTLT
Regarding B2, in data set [1], the “relative selectivity for HH cells vs iTreg cells among the tested molecules” value was “greatest relative selectivity”, the “Selectivity HH/iTreg” value is reported as 6.89 × 10^−2 and the EC50 was found to be 65.2 nM. The “binding to IL-2Rα” value with hIL2Rα (CD25) is “do not have measurable binding to IL-2Rα”. Also, the “expansion of NK cells in vivo” value with NK cells is on record as “promoted the expansion”. Moreover, the “proliferation of Treg cells in vivo” value in the data set on Treg cells was “minimal effects on the proliferation of Treg cells”. In the data set with B16F10 cells, the surviving mice is 14/15; the “tolerability in mice compared with Fc-IL2 and Fc-IL2v” value is “better tolerated”; the “tumor growth inhibition in comparison to PBS control” value was “significant tumor growth inhibition”. For the same molecule, in data set [2], the EC50 is 4.49 nM. In the data set with hILR2β (CD122), the Kd (in general, the constant that tells how readily two partners part at equilibrium) was found to be 2620 nM; the “hILR2β (CD122) kinetics ka” value was 89900 M⁻¹ s⁻¹; the “hILR2β (CD122) kinetics kd” value was determined as 0.235 s⁻¹; the “binding affinity to human IL-2Rβ compared with the wild-type IL-2 Fc fusion” value was “retain similar binding affinity”. Further, the “expansion of CD8 T cells in vivo” value in the data set with CD8 T cells is “promoted the expansion”.

(Values after patent US20220033784A1 (priority 2020, published 2022).)
